Experimental data as given in patent US20130017199A1, “SIMULTANEOUS INHIBITION OF PD-L1/PD-L2” (AMPLIMMUNE ,Inc. a corporation, priority 2009, published 2013).

Legend:
[1] = tested on: CT26 colorectal tumor cells; experiment: Established CT26 tumor model, eradication and rechallenge; conditions: CTX alone, 100 mg/kg on day 10
[2] = biological target: mouse PD-1-Ig (extracellular domain of mouse PD-1 linked to the Fc portion of mouse IgG2a) (mouse) (UniProt Q02242); experiment: capture ELISA; PD-1-Ig coated on plate, COS supernatant, anti-human IgG-HRP
Chain of UniProt Q02242 (Q02242 25-169): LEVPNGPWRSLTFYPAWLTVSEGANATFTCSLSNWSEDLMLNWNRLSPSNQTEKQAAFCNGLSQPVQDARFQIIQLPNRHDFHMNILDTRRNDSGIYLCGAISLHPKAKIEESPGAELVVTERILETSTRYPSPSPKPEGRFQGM

O=P1(N(CCCl)CCCl)NCCCO1 (stereo not drawn) [CTX, cyclophosphamide]
outcome of tumor bearing mice [1]: died as a result of tumor growth or were euthanized

mouse B7-H1-Ig F67A (from UniProt Q9EP73 19-239) (Fc fusion)
Binding activity ELISA (%) [2]: 2%

mouse B7-H1-Ig I115A (from UniProt Q9EP73 19-239) (Fc fusion)
Binding activity ELISA (%) [2]: 3%
